Laboratory results published in article PMC12154155.

What was measured:
[1] = molecular target: RsbS S56A, Listeria monocytogenes (Listeria monocytogenes); experiment: cryo-EM structure; stressosomes assembled from purified RsbR, RsbS and RsbT (1:2:5 molar ratio, overnight, 4 °C), purified on Superose 6 in 20 mM Tris-HCl pH 8.5, 250 mM NaCl, 1 mM DTT, 1 mM ADP; 50-150 ug/mL on GO-amino grids; C1, no symmetry imposed; only RsbR and RsbS modelled
[2] = molecular target: RsbS (wild type), Listeria monocytogenes (Listeria monocytogenes); experiment: as above

Row | Substance | stoichiometry N [1] | stoichiometry N [2]
1 | RsbR (wild type), Listeria monocytogenes (from UniProt Q8GD19 1-278) (natural protein) | 2 RsbR to RsbS | 
2 | RsbR T175A, Listeria monocytogenes (natural protein) |  | 2 RsbR to RsbS
3 | RsbR T209A, Listeria monocytogenes (natural protein) |  | 3 RsbR to RsbS
4 | RsbR T209E, Listeria monocytogenes (natural protein) |  | 1 RsbR to RsbS
